# Results reported in article PMC10188367, “Improved cytosine base editors generated from TadA variants” (Nature Biotechnology, 2023).
# How the values were obtained:
# [1] = target: the molecule itself; assay: crystal structure; TadA*8.20 (0.15 mM) with 0.22 mM 13-nt ssDNA containing d8Az; PEG 3,350, ammonium acetate, Tris pH 8.5, 20 °C
# [2] = target: the molecule itself; assay: crystal structure; TADAC-1.14 (0.18 mM) without ssDNA; ammonium sulfate, HEPES pH 7.5, 20 °C
# [3] = target: the molecule itself; assay: crystal structure; TADAC-1.19 (0.3 mM) without ssDNA; PEG 3,350, ammonium citrate tribasic pH 7.0, 20 °C
# [4] = target: the molecule itself; assay: crystal structure; TADAC-1.17 (0.15 mM) with 0.22 mM 13-nt ssDNA containing d8Az; PEG 3,350, Tacsimate pH 6, 20 °C
protein,measurement,setting,value
"TadA*8.20 (enzyme, E. coli, E. coli tRNA adenosine deaminase TadA, laboratory-evolved variant TadA*8.20 of ABE8.20-m; 167 residues; Crystallised with a 13-nt ssDNA containing 2-deoxy-8-azanebularine; zinc enzyme; also called deaminase of ABE8.20-m; ABE8.20 TadA*; source: E. coli BL21 Star (DE3), purified (Ni-NTA, Ulp1 cleavage, reverse Ni-NTA, heparin, SEC); not shown: His, N-terminal, cleaved; SUMO, N-terminal, cleaved) MSEVEFSHEYWMRHALTLAKRARDEREVPVGAVLVLNNRVIGEGWNRAIGLHDPTAHAEIMALRQGGLVMQNYRLYDATLYSTFEPCVMCAGAMIHSRIGRVVFGVRNAKTGAAGSLMDVLHHPGMNHRVEITEGILADECAALLCRFFRMPRRVFNAQKKAQSSTD",stoichiometry N,[1],2
"TADAC-1.14 (enzyme, E. coli, E. coli TadA variant: TadA*8.20 with S2H, I49K, Y76I and G112H relative to TadA*8.20; Y76I brings position 76 back to the wild-type residue; 167 residues; the rows below are written against wild-type TadA; Crystallised without ssDNA; also called deaminase of CABE-T1.14; source: E. coli BL21 Star (DE3), purified (Ni-NTA, heparin, SEC; Ulp1 tag cleavage and reverse Ni-NTA omitted); not shown: …) MHEVEFSHEYWMRHALTLAKRARDEREVPVGAVLVLNNRVIGEGWNRAKGLHDPTAHAEIMALRQGGLVMQNYRLIDATLYSTFEPCVMCAGAMIHSRIGRVVFGVRNAKTHAAGSLMDVLHHPGMNHRVEITEGILADECAALLCRFFRMPRRVFNAQKKAQSSTD",stoichiometry N,[2],2
"TADAC-1.19 (enzyme, E. coli, E. coli TadA variant: TadA*8.20 with E27G and I49N relative to TadA*8.20; 167 residues; the rows below are written against wild-type TadA; Crystallised without ssDNA; also called TADAC-T1.19; source: E. coli BL21, purified as described for TadA*8.20; not shown: His, N-terminal, cleaved; SUMO, N-terminal, cleaved) MSEVEFSHEYWMRHALTLAKRARDERGVPVGAVLVLNNRVIGEGWNRANGLHDPTAHAEIMALRQGGLVMQNYRLYDATLYSTFEPCVMCAGAMIHSRIGRVVFGVRNAKTGAAGSLMDVLHHPGMNHRVEITEGILADECAALLCRFFRMPRRVFNAQKKAQSSTD",stoichiometry N,[3],2
"TADAC-1.17 (enzyme, E. coli, E. coli TadA variant: TadA*8.20 with T17A, A48G, S82T and A142E relative to TadA*8.20; 167 residues; the rows below are written against wild-type TadA; Crystallised with a 13-nt ssDNA containing 2-deoxy-8-azanebularine; also called deaminase of CABE-T1.17; source: E. coli BL21, purified as described for TadA*8.20; not shown: His, N-terminal, cleaved; SUMO, N-terminal, cleaved) MSEVEFSHEYWMRHALALAKRARDEREVPVGAVLVLNNRVIGEGWNRGIGLHDPTAHAEIMALRQGGLVMQNYRLYDATLYTTFEPCVMCAGAMIHSRIGRVVFGVRNAKTGAAGSLMDVLHHPGMNHRVEITEGILADECEALLCRFFRMPRRVFNAQKKAQSSTD",stoichiometry N,[4],2
